Reference: the domain aggregation screens of Martell et al. (2025)

Assay: soluble fraction after stress (log2 fold change); higher = more stays soluble; pooled small domains, quantitative proteomics
Settings: stress: 50 degC
Summary of the method: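 Pooled custom libraries of small protein domains were measured in a high-throughput format, with quantitative proteomics as the read-out. Each library was stressed at 50°C. Aggregation propensity is given as the base-two logarithm of the fold change in how much of each protein stays soluble after the stress. Higher values mean a larger share of the protein remains in solution.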

“HMAVETYRVKKSDTMQTIADRFGLSVEELLEYNQAYKTRELRARDILIIPSRKERKKLQQQKAQAAAQVVQ” and “HMNSNIIKTINDELSIRKGKYGPYIMYKTKKMKRPKFKSIGDNTPDEFLADKGSISEIILWIN” are within 0.2 log units of each other in “soluble fraction (log2)” value: -0.253 for the first, -0.444 for the second.

Going from “HMGEENLKYPLLTDGSVKTTVLEAIDKDEKWLREELAKQGYDDLSKLFLVDYLGGQLVVTPY” to “HMEDVSTLAVKQRIDDLVKQENPAKPLSDSDIVARLKTDGIYIARRTVAKYRMELNIPSSSARKRAQQFS”, the “soluble fraction (log2)” value falls from 0.277 to -0.833.

“HMVNPIDFYLLFRTELQRLAEHPITVDRLTEVTGLNKLQVLDWLKRAEQDGLVKKLNRPTRYQLN” and “HMSAPAMTLDSIRSLLNDRDPWVVTQTVEWLVGLGPQVKTILETLTLESSDAARQAQNALDRINVRNYP” are within 0.2 log units of each other in “soluble fraction (log2)” value: -0.0401 for the first, -0.155 for the second.

“HMGQHSAELKLHPQDLGQVTISMKVEDNQAQLQMVSGHGHVRAALEAALPQLRSQLADSGIQLTQSSIS” and “HMRTDTIINSGGLKINPEEVENEILKSLGDNNFFIDKIKNDKFGEEIILIALKKIKINLLIESLNLI” are within 0.2 log units of each other in “soluble fraction (log2)” value: -0.146 for the first, 0.0394 for the second.

“HMGNFGDLLKILLDEKELSMGELSKKSGIDKSTISRIANNKQKPNINHLEKMAIHLNINLEELLKASGYEF” and “HMAKQEPTDNGYDIYKVTASVLNVRNGAGTSYAVAYQLSKEDYVEVVSIDKGWAKLKDGKYVSADWITLYK” are within 0.2 log units of each other in “soluble fraction (log2)” value: -0.364 for the first, -0.54 for the second.

“HMDDMVLEIGPGIGTMTQYLAEAAGKVVAVEIDRNLLPILQETLADYDNVKVIHADVLSLDLEKLVQEE” and “HMDDATDVPYQEFRTQVTSGQVEIAQFNNNTGKISFQSTSGEKFETSGPLELSSDDERLFLENIEDFKFFT” are within 0.2 log units of each other in “soluble fraction (log2)” value: -0.000883 for the first, -0.0161 for the second.

Compared with “HMANKLSEQIYGSILKDIVNGVYAPREFISEAQIAAKYGVSKAPVKEAMHILASEGFLLSYPKRGYMVN”, “HMTGLRETIPAALDGERLDRVVALLGDVSRSRASAALEAERVTLDGEVVTLRSHRVREGEELTVAGFE” is higher in “soluble fraction (log2)” value: -0.347 for the first, 0.405 for the second.

First: HMIQTKNVTFTINEKTKIANIPLKSLKILSQEDNRITLSYEKNSLKIDEIISYFSDKNINILDITTD
Second: HMGKTEETLQMEKLVEALRRSGRMKYEDAYRIVYAAFPDAKDFEGMLSGAIRAGFIELQMGNDGAFLRAL
The “soluble fraction (log2)” value of the first is lower: -0.451 for the first, -0.172 for the second.

First: HMSQDLVVLGDSMLNNALKAFHIDPNAIKKKYWDKLILDYHLKSKEEVLTEIALGKKINVMVAHQLTSIMD
Second: HMKEIIFRGIGEFILDYKSLVIEFLNKNNYANLSMDAPVDEVNKAVANNMLNEDFVTELLLFQRRVE
The “soluble fraction (log2)” value of the first is higher: -0.0721 for the first, -1.2 for the second.

“HMITDQQKEQLSSLLKQAEAALAKAAANDQVLAAHKDEAVELLKSTSATSADAADLINELTELLKPYQ” and “HMKNYYEVLGVPRDAAAPDIKRAFRKLAKQFHPDHNPGDAKAEERFKLVSQAYDVLGDEEKRKLYDQFGE” are within 0.2 log units of each other in “soluble fraction (log2)” value: 0.352 for the first, 0.173 for the second.

First: HMQLTDLSALEAIIKEVLAANPKSVEDYKSGKEKAFGSLVGQAMKATKGKANPETVNSLLRKNLN
Second: HMNFNYPVIVKNSRINVSGVLSAAKLYTINGQLLQSYKGSGEFTSKTLTKGIYILQVDNARTKVLV
The “soluble fraction (log2)” value of the first is higher: 0.519 for the first, -1.29 for the second.

“HMAISQYGSQSDEVTKIQTRLKAWGYFDGPVTAYYGSQTTEAVKKFQQKHGLSATGVADAKTLELIGLP” and “HMKIPGIGDVYAILARVYSGPQFTWIEAGFPEDDTKAYSYLHTAIRKGSAIAILQAMRTSGALTPTIEKE” are within 0.2 log units of each other in “soluble fraction (log2)” value: -0.36 for the first, -0.444 for the second.

Going from “HMTNYREILRLRSLGLNHSRIAESMGISRPTVIAALQRAQTQELNWQAAESLSDIDLAQRLNP” to “HMQPPVDGNEIMEIFGIKGSPVIGVIKSTIKNAILDGIIAPNDREAALELMFRIADENGLKPVVTQTQ”, the “soluble fraction (log2)” value rises from -0.395 to 0.101.

First: HMKQHPTIDLQIGQKLHYKEDVFEVTRFAKDKNGQDMVILKDPSIGSGIEIPWYRSKLEEIIESGQYKIT
Second: HMATQMSSARRGIATDEMKQVAKDEDVTLDWLLPKIAIGSIIIPSNNVRPQKIHNVGIGKGMKTKVN
The “soluble fraction (log2)” value of the first is higher: 0.413 for the first, 0.116 for the second.

First: HMQKMPEMQILPNGKVKLPDFSGINMRKAAELLQYGKLRLQPYGSGTAYQQKPAAGTEVDEGTVVEIWF
Second: HMNREDYIKAIFKIAEREGEASNQRIADSLGVSRASASEMVKKLIQEGFVVAEGRQLSLSAEGERIA
The “soluble fraction (log2)” value of the first is lower: -0.218 for the first, 0.0824 for the second.

First: HMRLPNGYGGVTKLSGRRRKPYMVRKTIGWHIDEKTDKKVQDYVVIGYAATKSEALQMLADYNNNPFDV
Second: HMQMTKSEFLDALRRALNGNMAAASVDDNIRFYDSYFYTEETKGRSEAEILSELGDPRILARTLIDAAD
The “soluble fraction (log2)” value of the first is lower: -3.2 for the first, 0.0125 for the second.

Compared with “HMDYLSEFITDKVVRADGYSIRKGELSNEFKQWFITNVGTKNPKPKEIHDYMDRKFGKNKNGIWKNVKIKL”, “HMSLSEGVSADVVADVQARLMELGYMDEDDPDGNFSESTRIAVEHFQQQAGLPVTGTVDKATLDALNSPD” is higher in “soluble fraction (log2)” value: -0.38 for the first, 0.0669 for the second.

First: HMETTEELISKTVPISYADMAALTGILDGVKSARGDIQVDDRTSTIIIHDIQSSIDEMMRLIKILD
Second: HMNVLGQTAIVRSLRLDATFGEVLLADGGAGLIFKARTHGDETFKKGDRVVLLEYLKDQHAYRVISETDFL
The “soluble fraction (log2)” value of the first is higher: -0.999 for the first, -1.94 for the second.

First: HMVLSTRERMSNILATLKGGHFVNFSDLFTPEEGRLGVVVTFLAMLELIKESLLDIVQHEVLGPIHVKARV
Second: HMVLAEPLSERELDILRLLAAGDSNKEIAAVLYITEGTVKNHVTNILGKLDARDRTQAALRARELGL
The “soluble fraction (log2)” value of the first is higher: -0.0744 for the first, -0.801 for the second.

Compared with “HMDSMATVPDLVGKTEDEAKALANDAHLGVQMAGEEASDQEKGKISRQETAAGTQVAEYTTVKYWVSTGTQ”, “HMGTPEQSAQFEQVLEELKNVPGPVMKAMQRAQDIYGYLPIEIQSRIGQAFGVSLEEVYGIATFYSQFNL” is lower in “soluble fraction (log2)” value: 0.124 for the first, -1.68 for the second.

Going from “HMVDYSMEDSVWNNKKEHVNEWFDANPEHEGRRVIVDGLFAIGDAQPDLRKRHWSSISVVFADLDNSPIG” to “HMNKLIIDAAEDKIFFMIMNNDISYNISHENTKINFEKLIILINDFLSSKKLKINDITGLYV”, the “soluble fraction (log2)” value rises from -0.356 to 0.067.

Going from “HMLSAQEIPVEDIATRDFVLAEDVVSAKKVLLLPKGVDLSWFGSAKKRLVQRLKSEGVTHIRVFA” to “HMPNYVEMLRLHEAGFSLRQIAKLVSSGRNTVTRTVNIAQEKELSYEEIAQWSSEELENMFKPD”, the “soluble fraction (log2)” value falls from -0.0541 to -1.68.

First: HMELSPVDLGERLKIARETANFTQDAAAKAVGIARTTLVSIEKGQRTARLDEIQALSRFYGVSANALLR
Second: HMNEIESFSNTKNPFSLTFKTSKDSSYKVEASSNLKKWTTLSQIKGTGNPITFTESRRILFRKQYYRVTLS
The “soluble fraction (log2)” value of the first is lower: -0.499 for the first, -0.197 for the second.

Going from “HMATGIKAVDNVFGWMNLEQVAKTVGLDIPSVLRASGLPEDTPVDISIKKIPGVDDEELKDSLRQYIEKS” to “HMKEEDYEVFMRLINVRGIGPKSALNILGVISGQEMIQAIENDDIKRLKSLPGIGAKTAGQIVLDLKGKFV”, the “soluble fraction (log2)” value falls from 0.0213 to -0.649.

Compared with “HMGVPTEQQSLIGKSGIAATDLRPSGKVEIDGKRYDAVSNYAGFIAKGTPISVVRYETGQIYVE”, “HMSINTLEVHSLKALENLAESPLLISFSYENEEYNYRLASSDVSLLKKISSNYSDDSDIKGLRFIS” is lower in “soluble fraction (log2)” value: 0.0415 for the first, -0.992 for the second.

Compared with “HMEVPTGNHIRRWRKSLDITQVKLSSLSGVAQSIIAKIENETVDPRVSTLRKLVEALSRFENP”, “HMDTEVVMINVVGMNIDKAKNSLNHKNILYKISYQDVSEGENNVVLKQSISSNTKIKKGQVVSLVVGKLN” is higher in “soluble fraction (log2)” value: -1.89 for the first, 0.352 for the second.

Going from “HMGEIILVPDVKAQGVSDARYTLNQAGLDAVIADSSYNRNSPPGAVLEQMPAPGSKVKSGHAIYLIINTT” to “HMTDRINIGDVVTIISKDREDSQIVYMRYHKGKLSILGELILNKTKNDTVDFKGRTYDIATIEKS”, the “soluble fraction (log2)” value falls from 0.053 to -1.83.

With “HMDYIGIQAAKEAALKDADISSEQAVFTMAELDNKNNIFYYQIMFTENGTEYRYDIDALTGVIIEKNHFF” the “soluble fraction (log2)” value was -1.96.
